Changes are numbered by the printed parent chain. Read-outs that look alike come from different tables or passages of the source.
What was measured:
[1] = biological target: T1, full-length human CD137 on cells (Hut78/huCD137, HEK293 transfectants, JK-NFKB-CD137) (human, UniProt Q07011 24-255); test: cell-based or functional assay
[2] = biological target: T1, full-length human CD137 on cells …; test: cell-based or functional assay; remark: listed apart in the source
human CD137 ECD-mIgG2a [3] = biological target: T2, human CD137 ECD-mIgG2a (human); test: SPR, A-CEAxCD137 format
T2 construct: ECD 24-183 of huCD137 fused to mouse IgG2a Fc; also called huCD137-mIgG2a; huCD137
T2 sequence (chain, as listed by the source limits assumed): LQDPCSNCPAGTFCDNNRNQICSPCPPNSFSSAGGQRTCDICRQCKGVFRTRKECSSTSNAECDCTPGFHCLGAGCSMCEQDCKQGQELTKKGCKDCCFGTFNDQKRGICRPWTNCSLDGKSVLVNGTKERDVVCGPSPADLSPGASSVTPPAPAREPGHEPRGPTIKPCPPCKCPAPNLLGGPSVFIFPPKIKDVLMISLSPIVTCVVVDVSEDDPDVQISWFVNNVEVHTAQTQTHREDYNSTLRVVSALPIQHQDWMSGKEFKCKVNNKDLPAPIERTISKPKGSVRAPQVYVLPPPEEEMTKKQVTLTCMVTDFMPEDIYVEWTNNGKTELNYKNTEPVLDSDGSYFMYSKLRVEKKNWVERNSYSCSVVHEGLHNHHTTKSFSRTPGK

[4] = biological target: T1, full-length human CD137 on cells …; test: flow cytometry on Hut78/huCD137 cells
[5] = biological target: T3, full-length human CEA on cells (MKN45, LOVO, L929/huCEA, CT26/CEA, CT26-OS8-CEA) (human, UniProt P06731 35-685); test: flow cytometry on CT26/CEA cells
T3 construct: also called CEACAM5; native CEA
T3 sequence: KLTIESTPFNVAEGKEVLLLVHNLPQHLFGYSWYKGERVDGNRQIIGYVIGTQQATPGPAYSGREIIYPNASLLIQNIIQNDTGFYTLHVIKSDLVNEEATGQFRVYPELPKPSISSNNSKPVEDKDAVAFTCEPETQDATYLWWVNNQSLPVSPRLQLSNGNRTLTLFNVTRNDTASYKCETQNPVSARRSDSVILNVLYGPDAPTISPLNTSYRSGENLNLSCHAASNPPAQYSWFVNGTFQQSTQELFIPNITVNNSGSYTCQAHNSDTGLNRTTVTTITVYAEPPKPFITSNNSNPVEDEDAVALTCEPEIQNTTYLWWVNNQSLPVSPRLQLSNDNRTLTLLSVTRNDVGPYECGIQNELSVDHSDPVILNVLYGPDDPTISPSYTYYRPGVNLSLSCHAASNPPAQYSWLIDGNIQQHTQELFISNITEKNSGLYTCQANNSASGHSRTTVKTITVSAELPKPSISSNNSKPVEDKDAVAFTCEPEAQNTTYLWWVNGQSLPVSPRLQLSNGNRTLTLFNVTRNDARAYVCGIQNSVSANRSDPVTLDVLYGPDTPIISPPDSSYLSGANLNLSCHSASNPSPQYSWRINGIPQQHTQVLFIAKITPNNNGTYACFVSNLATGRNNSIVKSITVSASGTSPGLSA

[6] = biological target: T1, full-length human CD137 on cells …; test: flow cytometry on Hut78/huCD137 cells; remark: listed apart in the source
human CD137 ECD-mIgG2a [7] = biological target: T2, human CD137 ECD-mIgG2a; test: SPR, human CD137 ECD-mIgG2a
[8] = biological target: T1, full-length human CD137 on cells …; test: flow cytometry on Hut78/huCD137 cells; remark: listed apart in the source
human CD137 ECD-mIgG2a [9] = biological target: T2, human CD137 ECD-mIgG2a; test: SPR, Fc fusion VH
human CD137 ECD-mIgG2a [10] = biological target: T2, human CD137 ECD-mIgG2a; test: SPR, Fc-fusion VH captured
[11] = biological target: T4, soluble human CEA, amino acids 1-687 of huCEA with C-terminal 6xHis tag (human, UniProt P06731 35-687); test: flow cytometry on MKN45 cells, 2 µg/ml antibody, competitor 20 µg/ml recombinant soluble CEA in solution
T4 construct: also called sCEA; soluble huCEA
T4 sequence: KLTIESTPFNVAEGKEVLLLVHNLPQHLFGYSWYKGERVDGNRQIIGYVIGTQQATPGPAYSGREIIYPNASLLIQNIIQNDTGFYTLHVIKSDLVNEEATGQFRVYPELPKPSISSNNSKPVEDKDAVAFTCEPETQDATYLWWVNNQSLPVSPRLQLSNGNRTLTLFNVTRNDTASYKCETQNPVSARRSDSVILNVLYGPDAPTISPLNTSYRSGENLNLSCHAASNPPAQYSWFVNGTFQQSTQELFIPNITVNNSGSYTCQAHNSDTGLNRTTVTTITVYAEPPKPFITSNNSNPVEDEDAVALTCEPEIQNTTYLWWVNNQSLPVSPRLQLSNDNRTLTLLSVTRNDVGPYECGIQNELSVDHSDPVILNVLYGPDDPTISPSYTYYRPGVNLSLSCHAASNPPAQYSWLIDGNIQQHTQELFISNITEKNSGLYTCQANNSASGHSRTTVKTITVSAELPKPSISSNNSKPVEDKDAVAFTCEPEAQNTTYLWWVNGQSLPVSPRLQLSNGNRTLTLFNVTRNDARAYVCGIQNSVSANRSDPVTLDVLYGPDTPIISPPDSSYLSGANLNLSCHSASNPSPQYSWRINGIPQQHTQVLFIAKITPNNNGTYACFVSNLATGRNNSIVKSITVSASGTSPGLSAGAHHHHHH

T1 sequence (Q07011 24-255 limits assumed): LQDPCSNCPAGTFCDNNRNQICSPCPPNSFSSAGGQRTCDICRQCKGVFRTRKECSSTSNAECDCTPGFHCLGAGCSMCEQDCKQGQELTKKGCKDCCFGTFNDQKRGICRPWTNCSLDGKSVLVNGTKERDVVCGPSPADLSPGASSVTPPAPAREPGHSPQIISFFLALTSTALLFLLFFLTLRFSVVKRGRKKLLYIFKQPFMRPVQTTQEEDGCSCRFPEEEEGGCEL

B1: BE-189 (Format A BGA-5623) (bispecific antibody, human IgG1, kappa)
heavy: QVQLVQSGAEVKKPGASVKVSCKASGYIFTSYYLHWVRQAPGQGLEWIGYINPQTGKTSYAQKFQGRVTMTRDTSTSTVYMELSSLRSEDTAVYYCAREYGNYNYPLDYWGQGTLVTVSSASTKGPSVFPLAPSSKSTSGGTAALGCLVKDYFPEPVTVSWNSGALTSGVHTFPAVLQSSGLYSLSSVVTVPSSSLGTQTYICNVNHKPSNTKVDKKVEPKSCDKTHTCPPCPAPPAAGPSVFLFPPKPKDTLMISRTPEVTCVVVDVSHEDPEVKFNWYVDGVEVHNAKTKPREEQYNSTYRVVSVLTVLHQDWLNGKEYKCKVSNKALAAPIEKTISKAKGQPREPQVYTLPPSREEMTKNQVSLTCLVKGFYPSDIAVEWESNGQPENNYKTTPPVLDSDGSFFLYSKLTVDKSRWQQGNVFSCSVMHEALHNHYTQKSLSLSPGKGGGGSEVQLLESGGGLVQPGGSLRLSCAASGFTVSAEDVGWVRQAPGKGLEWVSAILDKGGSTYYAESVKGRFTISRDNAKNTLYLQMSSLRAEDTAVYYCARIVYHAGGGVTFDTRGQGTQVTVSS
light: DIQMTQSPSSLSASVGDRVTITCRASENQYGYLAWYQQKPGKVPKLLIYNYKNLVEGVPSRFSGSGSGTDFTLTISSLQPEDVATYYCQHHLGTPYTFGQGTKVEIKRTVAAPSVFIFPPSDEQLKSGTASVVCLLNNFYPREAKVQWKVDNALQSGNSQESVTEQDSKDSTYSLSSTLTLSKADYEKHKVYACEVTHQGLSSPVTKSFNRGEC
notes: Module ratio 2:2, inert Fc
B1 was tested, and the “Functional assay EC50 (PBMC cytokine release, in vitro CD137 activation)” value [1] was 0.31 µg/mL, the “Functions EC50 (PBMC cytokine release)” value [2] was 0.341 µg/mL and the Kd (human CD137 ECD-mIgG2a [3]) was 94.8 nM. It also gave an EC50 [4] of 0.38 µg/mL.

B2: D-CD137/CEA (Format D: BGA-4712 VH fused to the N-terminus of the heavy chain of the anti-CEA antibody) (bispecific antibody, human IgG1, kappa)
heavy: EVQLLESGGGLVQPGGSLRLSCAASGFMLSAEDVGWVRQAPGKGLEWVSAILDFGGSTYYADSVKGRFTISRDNSKNTLYLQMNSLRAEDTAVYYCARVVYHAGGGVTFDYWGQGTLVTVSSSGGGGSQVQLVQSGAEVKKPGASVKVSCKASGYIFTSYYLHWVRQAPGQGLEWIGYINPQTGKTSYAQKFQGRVTMTRDTSTSTVYMELSSLRSEDTAVYYCAREYGNYNYPLDYWGQGTLVTVSSASTKGPSVFPLAPSSKSTSGGTAALGCLVKDYFPEPVTVSWNSGALTSGVHTFPAVLQSSGLYSLSSVVTVPSSSLGTQTYICNVNHKPSNTKVDKKVEPKSCDKTHTCPPCPAPPAAGPSVFLFPPKPKDTLMISRTPEVTCVVVDVSHEDPEVKFNWYVDGVEVHNAKTKPREEQYNSTYRVVSVLTVLHQDWLNGKEYKCKVSNKALAAPIEKTISKAKGQPREPQVYTLPPSREEMTKNQVSLTCLVKGFYPSDIAVEWESNGQPENNYKTTPPVLDSDGSFFLYSKLTVDKSRWQQGNVFSCSVMHEALHNHYTQKSLSLSPGK
light: B1 light
notes: Symmetric IgG-like molecule, inert Fc; also called D-CEAxCD137
Binder B2 has an EC50 [5] of 3.78 µg/mL, an EC50 [6] of 2.28 µg/mL and a Kd (human CD137 ECD-mIgG2a [7]) of 78 nM.

B3: A-CD137/CEA (Format A: BGA-4712 VH fused to the C-terminus of the Fc of the anti-CEA antibody) (bispecific antibody, human IgG1, kappa)
heavy: B1 heavy with T482M, V483L, K508F, E516D, A529S, S538N, I553V, T565Y, R566W, Q571L
light: B1 light
notes: Symmetric IgG-like molecule, inert Fc; also called A-CEAxCD137; A-CEA/CD137
Work on B3 yielded an EC50 [5] of 0.75 µg/mL, an EC50 [6] of 0.57 µg/mL and a Kd (human CD137 ECD-mIgG2a [7]) of 360 nM.

B4: Format A BGA-3386 (bispecific antibody, human IgG1, kappa)
heavy: B1 heavy with R566W, Q571L
light: B1 light
With B4 the “Functions EC50 (PBMC cytokine release)” value [2] was 0.0768 µg/mL, the Kd (human CD137 ECD-mIgG2a [3]) was 21.4 nM and the EC50 [4] was 0.21 µg/mL.

B5: BGA-4712-M3-mutFc (Fc fusion VH) (Fc fusion)
chain: EVQLLESGGGLVQPGGSLRLSCAASGFTLSAEDVGWVRQAPGKGLEWVSAILDFGGSTYYAESVKGRFTISRDNAKNTLYLQMSSLRAEDTAVYYCARVVYHAGGGVTFDYWGQGTLVTVSSGGGGSDKTHTCPPCPAPPAAGPSVFLFPPKPKDTLMISRTPEVTCVVVDVSHEDPEVKFNWYVDGVEVHNAKTKPREEQYNSTYRVVSVLTVLHQDWLNGKEYKCKVSNKALAAPIEKTISKAKGQPREPQVYTLPPSREEMTKNQVSLTCLVKGFYPSDIAVEWESNGQPENNYKTTPPVLDSDGSFFLYSKLTVDKSRWQQGNVFSCSVMHEALHNHYTQKSLSLSPGK
B5 was tested, and the EC50 [8] was 2.37 µg/mL, the Kd (human CD137 ECD-mIgG2a [9]) was 169 nM and the Kd (human CD137 ECD-mIgG2a [10]) was 169 nM.

B6: BGA-7556-mutFc (Fc fusion VH) (Fc fusion)
chain: B5 chain with W112R, L117Q
B6 gave an EC50 [8] of 5.71 µg/mL, a Kd (human CD137 ECD-mIgG2a [9]) of 200 nM and a Kd (human CD137 ECD-mIgG2a [10]) of 200 nM.

B7: BGA190 (antibody, V domains shown)
VH: DVQLVESGGGLVQPGGSRELSCAASGFTFSSFGMHWVRQAPERGLEWVAYISIGSDIIYYADTVKGRFTISRDNPKNTLFLQMTSLRSEDTAVYYCTRRSYRSYWYFDVWGAGTTVTVSS
VL: DIQMTQSPASLSASVGETVTITCRTSENIYSYLAWYQQKQGKSPHLLVYNAKTLAEGVPSRFSGSGSGTQFSLKIISLQPEDFGTYYCQHHFLSPWMFGGGTKLEIK
B7: binds [11].

B8: BGA288 (antibody, V domains shown)
VH: EVLLQQSGPELVKPGASVKIFCKASGYTFTDYNIDWVQQSHGKSLEWIGDIGPNYGGTIYNQKFKGKATLTVAKSSSTAYMELRSLTSEDTAVYYCARRGSIPRAVDYWGQGTSVTVSS
VL: DIKMTQSPSSMYASLGERVTITCKASQDIHNYLSWFQQKPGKSPKTLIYRANRLVDGVPSRFSGSGSGQDYSLTISSLEYEDMGIYYCLQYDEFPYTFGGGTKLEIK
B8: binds [11].

Source: patent publication US20240190989A1 (BEIGENE SWITZERLAND, published 2024)
